# According to paper PMC7308506 (2020):
# What was measured:
# [1] = biological target: kallikrein; assay: SPR
# [2] = biological target: T1, activated factor XII; assay: SPR
# T1 chain 1: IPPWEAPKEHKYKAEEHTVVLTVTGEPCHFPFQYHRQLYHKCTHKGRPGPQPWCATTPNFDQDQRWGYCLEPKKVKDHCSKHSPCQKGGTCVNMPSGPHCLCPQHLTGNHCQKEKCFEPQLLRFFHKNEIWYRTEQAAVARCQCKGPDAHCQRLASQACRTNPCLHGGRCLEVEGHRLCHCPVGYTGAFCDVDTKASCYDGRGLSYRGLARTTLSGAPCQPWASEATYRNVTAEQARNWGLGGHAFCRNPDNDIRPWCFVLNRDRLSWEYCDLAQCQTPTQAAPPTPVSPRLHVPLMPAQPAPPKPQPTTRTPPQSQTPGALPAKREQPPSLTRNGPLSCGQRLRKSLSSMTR
# T1 chain 2: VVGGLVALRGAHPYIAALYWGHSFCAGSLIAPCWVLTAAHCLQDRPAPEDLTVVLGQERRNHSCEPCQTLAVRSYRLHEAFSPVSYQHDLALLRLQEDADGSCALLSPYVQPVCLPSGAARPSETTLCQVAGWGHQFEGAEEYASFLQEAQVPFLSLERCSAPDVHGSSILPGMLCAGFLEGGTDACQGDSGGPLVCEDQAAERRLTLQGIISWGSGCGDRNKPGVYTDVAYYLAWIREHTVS
binder,measurement,setting,value
LCTX-F2 (peptide) GAKACTPRLHDCSHDRHSCCRGELFKDVCYCFYPEGEDKTEVCSCQQPKSHKYIEKVVDKTKTLVG,Kd,[1],4.6 nM
same,Kd,[2],7.2 nM
